Measurements taken from patent US20080027001A1, “NOGO RECEPTOR FUNCTIONAL MOTIFS, PEPTIDE MIMETICS, AND MUTATED FUNCTIONAL MOTIFS RELATED THERETO, AND METHODS OF USING THE SAME” (priority 2006, published 2008).

Biological target: human p75 neurotrophin receptor (p75NTR) expressed in CHO-K1 cells (human) (UniProt P08138)
Test: AP fusion protein on CHO-K1 cells expressing cell-surface human p75NTR, fluorescent AP substrate

Sequence of human p75 neurotrophin receptor (p75NTR) expressed in CHO-K1 cells (human) (P08138 29-427): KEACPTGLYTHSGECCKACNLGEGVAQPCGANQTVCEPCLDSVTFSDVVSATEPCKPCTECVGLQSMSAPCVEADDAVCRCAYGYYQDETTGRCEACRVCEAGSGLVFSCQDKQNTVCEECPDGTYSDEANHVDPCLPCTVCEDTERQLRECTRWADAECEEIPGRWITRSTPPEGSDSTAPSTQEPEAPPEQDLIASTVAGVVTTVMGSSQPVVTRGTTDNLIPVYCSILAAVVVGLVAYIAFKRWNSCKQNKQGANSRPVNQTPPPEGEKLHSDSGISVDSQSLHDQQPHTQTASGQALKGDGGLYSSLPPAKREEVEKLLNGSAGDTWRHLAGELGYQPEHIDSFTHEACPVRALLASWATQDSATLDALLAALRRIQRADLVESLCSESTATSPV

With NgR-AP the fold bound against mock-transfected control cells was 5 fold.
